Data from patent US8961986B2, “Peptide composition” (Apitope Technology (Bristol) Limited, priority 2000, dated 2015).

Tests used:
[1] = molecular target: T1, HLA-DR2a (Homo sapiens, UniProt P01903+Q30154); experiment: Antigen presentation assay, HLA-DR2a transfected L-cells; assay type: cell-based
T1 construct: expressed in transfected cells; host or cells: L-cells
Source text: (§1) MBP peptides 30-44, 130-144 and 139-153 were synthesized using L-amino acids and standard F-moc chemistry on an Abimed AMS 422 multiple peptide synthesiser.
(§2) L-cells transfected with either HLA-DQ6, HLA-DR2a or HLA-DR2b, or Mgar cells (EACC, Porton Down, UK) which express HLA-DQ, DP and DR were used as APCs.
(§3) T-cell clones MS 49:D3 and MS17:A2 were generated from MS patients and clone N5:19 was generated from a normal individual. All three clones were DR2 positive.
(§4) Antigen presenting cells were incubated with the various concentrations of peptide and the appropriate T-cells. Proliferation, and therefore activation, of the T-cells was measured by [^3H]-Thymidine incorporation, and expressed as the stimulation index (SI=corrected counts per minute (ccpm) culture containing peptide/ccpm culture without peptide).

[2] = molecular target: T2, HLA-DR2b (Homo sapiens, UniProt P01903+P01911); experiment: Antigen presentation assay, HLA-DR2b transfected L-cells; assay type: cell-based
T2 construct: expressed in transfected cells; host or cells: L-cells
Source text: as §1, §2, §3, §4

T1 sequence (P01903 26-254): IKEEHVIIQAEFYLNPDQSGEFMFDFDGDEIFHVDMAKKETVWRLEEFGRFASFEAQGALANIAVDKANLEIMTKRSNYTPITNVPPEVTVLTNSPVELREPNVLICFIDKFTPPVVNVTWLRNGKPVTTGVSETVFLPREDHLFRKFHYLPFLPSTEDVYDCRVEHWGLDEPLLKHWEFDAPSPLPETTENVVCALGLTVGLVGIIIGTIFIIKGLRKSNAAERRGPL
T1 sequence (Q30154 30-266): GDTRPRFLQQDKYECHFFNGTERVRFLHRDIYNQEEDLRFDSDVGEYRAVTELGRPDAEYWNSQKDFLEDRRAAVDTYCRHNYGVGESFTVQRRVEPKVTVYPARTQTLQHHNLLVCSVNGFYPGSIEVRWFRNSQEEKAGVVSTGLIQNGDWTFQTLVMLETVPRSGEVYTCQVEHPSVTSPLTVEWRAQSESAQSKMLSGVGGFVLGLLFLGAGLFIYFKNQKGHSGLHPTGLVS
T2 sequence (P01903 26-254): as the sequence (P01903 26-254) above
T2 sequence (P01911 30-266): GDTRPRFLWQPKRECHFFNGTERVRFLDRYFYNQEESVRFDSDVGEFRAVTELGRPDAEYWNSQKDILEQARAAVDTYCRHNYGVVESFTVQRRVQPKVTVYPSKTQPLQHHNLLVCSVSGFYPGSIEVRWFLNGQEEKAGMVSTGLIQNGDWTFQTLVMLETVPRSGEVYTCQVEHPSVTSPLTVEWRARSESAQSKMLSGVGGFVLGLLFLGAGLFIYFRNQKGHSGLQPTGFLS

Substance: MBP 139-153: MBP peptide 139-153 synthesized using L-amino acids (RPSQRHGSKYLATAS)
- proliferation of N5:19 T-cell clone, HLA-DR2a transfected L-cells [1]: stimulated proliferation
- proliferation of N5:19 T-cell clone, HLA-DR2b transfected L-cells [2]: not
